By stoichiometry N is commonly meant a count of units in the complex or per binding partner.

In series [1] the target is unmyristoylated recoverin (bovine) (UniProt P21457). As to the kind of experiment: NMR pulsed-field gradient diffusion.
For series [2] the target is unchanged. As to the kind of experiment: 15N NMR relaxation.
The series “CW-EPR line shape” concerns the molecule itself. As to the kind of experiment: CW-EPR line shape.

As to “unmyristoylated recoverin (from UniProt P21457 1-202) (natural protein)”, the stoichiometry N in series [1] and in series [2] was 2 in each case.

B1: myristoylated recoverin spin-labeled only at Cys39 (natural protein, bovine)
chain: GNSKSGALSKEILEELQLNTKFTEEELSSWYQSFLKECPSGRITRQEFQTIYSKFFPEADPKAYAQHVFRSFDANSDGTLDFKEYVIALHMTSAGKTNQKLEWAFSLYDVDGNGTISKNEVLEIVTAIFKMISPEDTKHLPEDENTPEKRAEKIWGFFGKKDDDKLTEKEFIEGTLANKEILRLIQFEPQKVKEKLKEKKL
modifications: N-terminal myristoyl group; nitroxide spin label at the native cysteine C39
As for B1, the “stoichiometry N” value in the series “CW-EPR line shape” is 2.

The record behind these values is publication PMC3784611 (Biochemistry, 2013).
